These results are taken from patent US12173057B2, “Antibodies and therapeutic uses thereof” (Ibex Biosciences, Inc., priority 2018, dated 2024).

One test relates to MDA-MB-231 cells. Kind of test: ORIS cell migration (motility) assay. Format: cell-based, human. As to the method: Cell motility assays utilized the Platypus Technologies ORIS™ cell migration assay platform, which is generally described at platypustech.com/discoverAssay.html.
Specifically, the filamin-A antibodies of the present disclosure were evaluated in the ORIS™ cell migration assay, which used tri-coated 96 well plates (Platypus #CMATR1.101). Cells were seeded at approximately 50,000 cells/well. Cells were incubated overnight at 37° C. without CO2 in DMEM, in the case of HEK-293 cells, or L-15 containing 10% FBS, in the case of MDA-MB-231 cells. Stoppers covering cell growth chambers were removed with the ORIS™ stopper tool, growth media was removed, and wells were gently washed with 100 microliters of sterile PBS. Stoppers were left in place in reference wells until the staining step to serve as pre-migration controls. After washing, a 100 microliter volume of fresh culture media containing the specific treatment was added to each well. The cells were then allowed to incubate overnight. At the end of the incubation period, cells were fluorescently stained with Calcein AM for 30 minutes. Fluorescence was then measured using a microplate reader with a Detection Mask in place.
FIGS. 1 and 2 depict the relative fluorescence units (RFUs) present in the detection zones for each condition (mean+/−S.D., n=2 wells/condition).
Wells containing the cells existed in three formats: coated with collagen, coated with fibronectin, or a tissue culture (TC) treatment.
Well treatments were as follows: no antibody control, mouse antibody (mAb FLNA 1 mcg/ml), mouse antibody (mAb FLNA 20 mcg/ml), human chimeric antibody (hAb FLNA 1 mcg/ml), human chimeric antibody (hAb FLNA 20 mcg/ml), apicdin (100 nM), cytochalasin B (30 micromolar); see FIG. 1. An increase in the number of RFUs correlates with an increase in cellular motility.

A further test concerns filamin-A. Briefly: Immunofluorescence assays with MDA-MB-231 breast cancer cell line. Format: cell-based, human. As to the method: Characterization of the filamin-A mAbs was performed using immunofluorescence assays with the MDA-MB-231 breast cancer cell line. […] For comparison, the AHO1402 mAb and another commercially available mAb, TI10 (Millipore MAB1680-C), were assayed at the same time.
The primary antibodies utilized in the immunofluorescence assays were as follows: • Anti-Filamin-A, clone TI10 (Millipore, p/n MAB1680-C) • Anti-Filamin-A, clone 209 #13 (Life Technologies, p/n AHO1402) • Anti-Filamin-A, mouse mAb • Anti-Filamin-A, human chimeric mAb • Anti-beta Actin, rabbit polyclonal (Rockland, p/n 600-401-886S)
Two primary methods of Immunofluorescence staining were utilized. The first method comprises single staining or double staining with methanol as a fixative and 0.2% Triton as a permeabilization agent, which is described in Alper et al. 2009. The second method utilizes a double staining technique with 2% paraformaldehyde as a fixative and 0.2% triton as a permeabilization agent.
Primary antibodies were incubated with the fixed and permeabilized cells for 1 hour at room temperature at a concentration of 1.25 mcg/ml. After one or more wash steps, secondary antibodies were incubated with the cells for 1 hour at room temperature. […]

Test [1] has as its target T1, surface filamin A on SKNAS (human neuroblastoma) cell line (Homo sapiens, UniProt P21333).
T1 construct: endogenous in cells; host or cells: SKNAS
Briefly: B411 surface staining by flow cytometry. Format: binding. Conditions: 2 μg primary antibody, 1 hour on ice. As to the method: (§1) B411 surface staining on several different cell types was conducted. Cells were plated at a concentration of 0.5-1.0 million cells per well, and incubated overnight. Cells were then lifted from the wells, washed, and resuspended in flow cytometry media with 2 μg of primary antibody for 1 hour on ice. Cells were washed and incubated with the secondary antibody (5 μg/ml) for 30 minutes on ice. Cells were washed again and analyzed by flow cytometry.
(A flow cytometer gives signals particle by particle.)

Test [2] has as its target T2, surface filamin A on HeLa cells (Homo sapiens, UniProt P21333).
T2 construct: endogenous in cells; host or cells: HeLa
Briefly: B411 surface staining by flow cytometry. In kind it is binding. Conditions: 2 μg primary antibody, 1 hour on ice. As to the method:
as §1

For test [3], the target named is T3, surface filamin A on SKBR3 (breast adenocarcinoma) cell line (Homo sapiens, UniProt P21333).
T3 construct: endogenous in cells; host or cells: SKBR3
Briefly: B411 surface staining by flow cytometry. In kind it is binding. Conditions: 2 μg primary antibody, 1 hour on ice. As to the method:
as §1

The target in test [4] is T4, surface filamin A on SKOV3 cell line (ovarian cancer) (Homo sapiens, UniProt P21333).
T4 construct: endogenous in cells; host or cells: SKOV3
Kind of test: B411 surface staining by flow cytometry. Particulars: 2 μg primary antibody, 1 hour on ice. In kind it is binding. As to the method: as §1

Test [5] relates to HEK293A (human embryonic kidney cell line). Briefly: CellCountzEZ Cell Survival Assay. Format: cell-based. Particulars: for ratio of inhibition: dose not restated in b354 (10 μg). As to the method:
(§2) A study was conducted to assess cell survival following incubation with antibody B411. DU145 (human prostate cancer cell line) and HEK293A (human embryonic kidney cell line) cells were seeded on 96-well plates (10^4 cells/well) and incubated for 4 hours at 37° C. 1 μg or 10 μg B411 (endotoxin removed, 1.2 EU/mL) was added to the wells and incubated for 24 or 48 hours. An untreated group for both cell types was also included. Cell survival was detected using CellCountzEZ™ Cell Survival Assay kit and results were determined by reading OD412 with a reference to OD650.

In test [6] the test system is DU145 (human prostate cancer cell line). Briefly: CellCountzEZ Cell Survival Assay. Format: cell-based. Conditions: for ratio of inhibition: dose not restated in b354 (10 μg). As to the method:
as §2

Test [7] has as its system SKBR3 cells (breast adenocarcinoma). Kind of test: Endocytosis assay (Zenon pHrodo labelled antibody, flow cytometry). In kind it is cell-based, human. Particulars: 12 μg/mL labelled antibody; 24 hours, 37° C. As to the method: Experiments were conducted to determine if antibody B411 is endocytosed by cells. 250,000 cells/well were plated and incubated overnight at 37° C., 5% CO2. 12 μg/mL of antibodies were labelled with Zenon pHrodo kit (human green) according to the manufacturer's protocol for 5 minutes at room temperature, in the dark. The plated cells were then incubated with the labeled antibodies for 24 hours, at 37° C., 5% CO2. Cells were then lifted by manual scraping, and washed prior to analysis by flow cytometry.

Test [8] relates to MDA-MB-231 breast cancer cells. Kind of test: ORIS cell migration assay with Calcein AM / propidium iodide / Hoechst 33342 staining. In kind it is cell-based, human. Particulars: overnight incubation with antibody versus buffer control. As to the method: Additional cell assays were carried out using the B411 antibody and the breast cancer cell lines MDA-MB-231 and SKBR3. Specifically, the filamin-A antibody B411 was evaluated in the ORIS™ cell migration assay, which used tri-coated 96 well plates (Platypus #CMATR1.101). Cells were seeded at approximately 25,000 or 50,000 cells/well. Cells were incubated overnight at 37° C., CO2, McCoy's in the case of SKBR3 cells, or L-15 containing 10% FBS, without CO2 in the case of MDA-MB-231 cells. Stoppers covering cell growth and migration zones were removed with the ORIS™ stopper tool, growth media was removed, and wells gently washed with 100 microliters of sterile PBS. Stoppers were left in place in reference wells until the staining step to serve as no-migration controls. After washing, a 100 microliter volume of fresh culture media containing the specific treatment was added to each well. The cells were then allowed to incubate overnight. At the end of the incubation period, cells were fluorescently stained as follows: • Carefully remove remaining culture medium from wells and wash with 100 μL of PBS. […] Fluorescence was then measured using a microplate reader with a Detection Mask in place. • Carefully remove Calcein AM and wash with 100 μL of PBS. […] Incubate 5-10 min at room temperature. • Take a fluorescence image (blue, green and red channels) of a representative well(s) using 5× magnification.

Entries after “also recorded” stand apart in the source; their conditions may differ.

T4 sequence (P21333 whole entry): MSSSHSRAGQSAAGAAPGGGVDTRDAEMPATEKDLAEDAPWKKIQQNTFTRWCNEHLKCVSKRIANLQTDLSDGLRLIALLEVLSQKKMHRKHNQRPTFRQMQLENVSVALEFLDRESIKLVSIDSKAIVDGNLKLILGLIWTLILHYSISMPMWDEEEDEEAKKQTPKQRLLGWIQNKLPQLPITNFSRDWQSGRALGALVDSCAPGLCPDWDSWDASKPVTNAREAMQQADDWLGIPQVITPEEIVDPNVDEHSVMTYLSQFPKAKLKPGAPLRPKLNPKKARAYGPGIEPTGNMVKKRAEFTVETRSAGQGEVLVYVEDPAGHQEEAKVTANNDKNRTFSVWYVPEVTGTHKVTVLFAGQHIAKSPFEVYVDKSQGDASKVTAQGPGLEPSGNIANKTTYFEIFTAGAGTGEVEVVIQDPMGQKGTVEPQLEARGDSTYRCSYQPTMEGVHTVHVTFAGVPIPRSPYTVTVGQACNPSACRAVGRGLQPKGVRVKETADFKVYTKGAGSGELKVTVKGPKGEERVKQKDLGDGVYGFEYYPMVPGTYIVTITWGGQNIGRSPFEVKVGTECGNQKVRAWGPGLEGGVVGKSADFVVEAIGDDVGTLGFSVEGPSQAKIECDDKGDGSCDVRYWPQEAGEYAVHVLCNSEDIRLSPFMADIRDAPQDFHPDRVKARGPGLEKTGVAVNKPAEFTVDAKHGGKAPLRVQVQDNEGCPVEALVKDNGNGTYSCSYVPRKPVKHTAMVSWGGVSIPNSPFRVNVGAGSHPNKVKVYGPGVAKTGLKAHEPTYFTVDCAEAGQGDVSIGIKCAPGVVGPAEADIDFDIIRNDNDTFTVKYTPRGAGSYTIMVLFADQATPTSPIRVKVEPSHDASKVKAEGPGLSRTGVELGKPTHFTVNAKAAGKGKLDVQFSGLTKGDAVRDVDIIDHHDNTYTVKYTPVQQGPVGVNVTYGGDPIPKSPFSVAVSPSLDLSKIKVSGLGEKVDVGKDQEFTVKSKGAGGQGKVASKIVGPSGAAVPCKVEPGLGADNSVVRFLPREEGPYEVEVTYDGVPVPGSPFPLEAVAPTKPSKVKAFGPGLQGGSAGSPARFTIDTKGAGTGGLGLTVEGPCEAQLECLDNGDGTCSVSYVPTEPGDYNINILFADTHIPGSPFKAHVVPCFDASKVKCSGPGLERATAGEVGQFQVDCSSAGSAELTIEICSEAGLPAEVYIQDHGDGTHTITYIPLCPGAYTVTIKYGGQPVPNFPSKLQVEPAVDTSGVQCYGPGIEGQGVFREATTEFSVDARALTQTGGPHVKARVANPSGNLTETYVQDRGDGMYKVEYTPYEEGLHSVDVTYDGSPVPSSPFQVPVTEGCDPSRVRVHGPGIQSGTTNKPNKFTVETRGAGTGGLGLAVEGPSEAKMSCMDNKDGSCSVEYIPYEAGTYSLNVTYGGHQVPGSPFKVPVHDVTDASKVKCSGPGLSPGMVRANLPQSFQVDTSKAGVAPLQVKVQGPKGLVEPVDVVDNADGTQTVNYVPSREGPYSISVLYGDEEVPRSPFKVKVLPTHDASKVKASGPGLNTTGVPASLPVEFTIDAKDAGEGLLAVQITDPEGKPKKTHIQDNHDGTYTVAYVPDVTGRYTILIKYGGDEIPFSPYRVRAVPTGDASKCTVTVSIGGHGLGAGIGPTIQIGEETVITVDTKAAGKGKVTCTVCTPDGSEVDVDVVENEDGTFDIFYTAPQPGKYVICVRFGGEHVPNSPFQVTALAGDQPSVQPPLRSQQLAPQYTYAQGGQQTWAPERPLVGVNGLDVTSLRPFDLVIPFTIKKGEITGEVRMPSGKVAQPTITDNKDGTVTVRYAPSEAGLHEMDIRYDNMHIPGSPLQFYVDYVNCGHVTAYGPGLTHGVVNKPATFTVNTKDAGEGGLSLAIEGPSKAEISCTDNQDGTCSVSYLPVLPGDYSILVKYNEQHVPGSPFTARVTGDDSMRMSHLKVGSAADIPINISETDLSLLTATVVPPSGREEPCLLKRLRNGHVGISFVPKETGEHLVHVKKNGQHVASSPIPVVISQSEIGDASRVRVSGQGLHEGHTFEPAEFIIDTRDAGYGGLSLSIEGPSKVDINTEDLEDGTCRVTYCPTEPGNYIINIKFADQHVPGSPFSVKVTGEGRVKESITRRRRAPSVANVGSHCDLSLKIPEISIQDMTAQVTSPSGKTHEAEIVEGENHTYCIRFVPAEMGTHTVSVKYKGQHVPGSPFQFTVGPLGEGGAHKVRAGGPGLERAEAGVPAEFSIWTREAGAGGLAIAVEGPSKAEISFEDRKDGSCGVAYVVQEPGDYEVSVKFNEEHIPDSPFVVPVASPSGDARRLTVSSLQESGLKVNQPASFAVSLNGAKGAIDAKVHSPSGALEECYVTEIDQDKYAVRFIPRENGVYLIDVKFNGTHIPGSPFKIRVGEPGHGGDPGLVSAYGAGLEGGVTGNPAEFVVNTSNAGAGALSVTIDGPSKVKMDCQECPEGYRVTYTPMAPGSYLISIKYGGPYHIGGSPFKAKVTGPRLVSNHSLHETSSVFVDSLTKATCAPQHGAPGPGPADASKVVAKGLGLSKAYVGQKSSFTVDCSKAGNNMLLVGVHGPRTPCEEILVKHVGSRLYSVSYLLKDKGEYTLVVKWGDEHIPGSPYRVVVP
T3 sequence (P21333 whole entry): as above
T2 sequence (P21333 whole entry): as above
T1 sequence (P21333 whole entry): as above

Regarding `C=C1[C@@H](C)[C@H]2[C@H](Cc3ccccc3)NC(=O)[C@]23OC(=O)/C=C/[C@H](O)CCC[C@@H](C)C/C=C/[C@H]3[C@@H]1O` [cytochalasin B, reference compound], the “effect on cell migration” value with MDA-MB-231 cells (tissue culture (TC) treatment wells, no coating) was “little effect across treatments with the exception of cytochalasin B”.

B1: murine antibody: recombinant mouse anti-filamin-A mAb of the disclosure (mouse antibody B186); mouse VL SEQ ID NO:22, VH SEQ ID NO:24 (antibody, listed as Mus sp., V domains shown)
VH: EVKLVESGGGLVQPGGSLKLSCAASGFTFSSYTMSWVRQTPEKRLEWVAYISNGGGSTYYPDTVKGRFTISRDNAKNTLYLQMSSLKSEDTAMYYCASDGLLRPFAYWGQGTLVTVSA
VL: DIVMTQSHKFMSTSVGDRVSITCKASQDVSIDVAWYQQKPGQSPKLLIYSASHRYTGVPDRFTGSGSGTDFTFTISGVQAEDLAVYFCQQHYSTPLTFGAGTKLELK
With B1, the immunofluorescence staining pattern entry in the test with filamin-A (MDA-MB-231 cells, primary antibody 1.25 mcg/ml) is on record as “punctate staining pattern”; in the test with filamin-A (first method: methanol fixative, 0.2% Triton permeabilization), “reproduced the punctuate staining pattern”. Moreover, in the test with MDA-MB-231 cells (collagen coated wells), the “effect on cell motility” value is listed as “no considerable differences”. Further, the “effect on cell migration” value with MDA-MB-231 cells (collagen treated wells, 1 μg/mL) was “did not lead to a reduction in cell migration”. In addition, the “effect on cell motility / cell migration” value in the test on MDA-MB-231 cells (fibronectin coated wells, 1 μg/mL) is “decreases in cell motility”; with MDA-MB-231 cells (fibronectin coated wells, 1 μg/mL, listed as murine mAbs) it was “less of a reduction”. Moreover, the “cell motility (relative fluorescence units in detection zone)” value in the test with MDA-MB-231 cells (fibronectin coated wells, antibody 1 μg/mL, overnight incubation) stood at 191.34 RFU.

B2: B411: anti-filamin-A human chimeric antibody, light chain variable region SEQ ID NO:2, heavy chain variable region SEQ ID NO:7 (antibody, V domains shown)
VH: EVKLVESGGGLVQPGGSLKLSCAASGFTFSSYTMSWVRQTPEKRLEWVAYISNGGGSTYYPDTVKGRFTISRDNAKNTLYLQMSSLKSEDTAMYYCASDGIIRPFAYWGQGTLVTVSA
VL: DIVMTQSHKFMSTSVGDRVSITCKASQDVSLDVAWYQQKPGQSPKLLIYSASHRYTGVPDRFTGSGSGTDFTFTISGVQAEDLAVYFCQQHYSTPLTFGAGTKLELK
modifications: VH domain of mAbs B407 and B411; human chimeric mAb VL domain of mAbs B408, B409, B410, and B411
As to B2, the surface staining result is given as “Highly Positive staining” in [1], “Highly Positive staining” in test [2], “some positive staining; also recorded: weaker compared to the other cell lines tested” in [3] and “Highly Positive staining” in test [4]. The “effect on cell proliferation” value in test [5] (1 μg dose, 24 h or 48 h) is reported as “did not have an effect”. Besides, in test [5] (10 μg), the “inhibition of cell proliferation” value was “Inhibition of HEK293 cell proliferation was also observed”. Besides, the ratio of inhibition in test [5] (24 h) was determined as 9.3%; in [5] (48 h), 17.7%; in test [6] (24 h), 7.8%; in [6] (48 h), 14.6%. Also, the “inhibition effect on proliferation versus untreated group” value in test [6] (1 μg dosing, 24 h) is “significant inhibition effect on proliferation”; in test [6] (1 μg dosing, 48 h) it was “no statistically significant effect”; in test [6] (10 μg dosing, 24 h and 48 h) it was “significant inhibition effects on proliferation”. Moreover, the “cell proliferation (OD412 with reference to OD650)” value in test [6] (1 μg or 10 μg, 24 or 48 hours, overall statement) was “inhibits DU145 (cancer) cell proliferation”. For the same molecule, in test [7], the endocytosis of antibody result is “detected”. For the same molecule, in [7], the “number of cells positive for endocytosis, SKBR3 compared to HEK (non-cancer) cells” value is “More SKBR3 cells were positive for B411 than HEK cells”. For the same molecule, in [8], the “Calcein AM staining (metabolic activity)” value was “more variability in Calcein AM staining”. In addition, the “Hoechst 33342 staining (apoptosis-like phenotype)” value in [8] is reported as “increase in Hoechst 33342 staining”.
